{"source": "paper PMC8762078", "about": "“An ALS-associated variant of the autophagy receptor SQSTM1/p62 reprograms binding selectivity toward the autophagy-related hATG8 proteins” (The Journal of Biological Chemistry, 2021)", "target": "p62 WT-AIM peptide (human)", "test": "native MS; ESI-MS competition binding under nondenaturing conditions: each hATG8 titrated into an equimolar mixture of WT-AIM and L341V-AIM peptides (each 10 μM); read-out is the ratio of peak intensities of unbound WT and L341V peptides; ratios given for 20 μM hATG8; two independent experiments", "data": [{"substance": "GABARAPL1 (from UniProt Q9H0R8 1-117) (natural protein)", "values": [{"measurement": "ratio of unbound WT:L341V AIM peptides at 20 μM hATG8 (reference: L341V-AIM)", "value": 0.5}]}]}
